Experimental data from PMC7948961, “Proteomic identification and validation of novel interactions of the putative tumor suppressor PRELP with membrane proteins including IGFI-R and p75NTR” (The Journal of Biological Chemistry, 2021).

B1: Recombinant PRELP (rPRELP), human PRELP with a C-terminal FLAG tag, from Mimic Sf9 cells (natural protein, UniProt P51888 21-382, looked up)
chain: QPTRRPRPGTGPGRRPRPRPRPTPSFPQPDEPAEPTDLPPPLPPGPPSIFPDCPRECYCPPDFPSALYCDSRNLRKVPVIPPRIHYLYLQNNFITELPVESFQNATGLRWINLDNNRIRKIDQRVLEKLPGLVFLYMEKNQLEEVPSALPRNLEQLRLSQNHISRIPPGVFSKLENLLLLDLQHNRLSDGVFKPDTFHGLKNLMQLNLAHNILRKMPPRVPTAIHQLYLDSNKIETIPNGYFKSFPNLAFIRLNYNKLTDRGLPKNSFNISNLLVLHLSHNRISSVPAINNRLEHLYLNNNSIEKINGTQICPNDLVAFHDFSSDLENVPHLRYLRLDGNYLKPPIPLDLMMCFRLLQSVVI
notes: Proline and arginine-rich end leucine-rich repeat protein (PRELP), human; secreted into the supernatant; No cleavage of the FLAG tag is described; source: Mimic Sf9 (baculovirus), purified from the supernatant (DDDDK-tagged Protein Purification Gel twice, Benzonase, SEC)
B2: Recombinant, soluble p75NTR (rsp75NTR), extracellular domain of human p75NTR (residues 1-161) with a C-terminal hexahistidine tag (domain or fragment)
chain: KEACPTGLYTHSGECCKACNLGEGVAQPCGANQTVCEPCLDSVTFSDVVSATEPCKPCTECVGLQSMSAPCVEADDAVCRCAYGYYQDETTGRCEACRVCEAGSGLVFSCQDKQNTVCEECPDGTYSDEANHVDPCLPCTVCEDTERQLRECTRWADAECE
modifications: Printed residues 1-161 are read as mature numbering (signal 1-28, offset +28): 161+28=189 falls at the end of the fourth cysteine-rich repeat, and the same paper's IGFI-R 1-905 is mature numbering …

Columns and labels:
[1] = target: T1, Recombinant, soluble IGFI-R (rsIGFI-R), extracellular domain of human IGFI-R (residues 1-905) with a … (human, UniProt P08069 31-935); assay: SPR; Biacore 2000; rPRELP immobilised by amine coupling on CM5 at around 4000 RU; rsIGFI-R or rsp75NTR injected at 30 μl/min; 10 mM HEPES pH 7.5, 150 mM NaCl, 0.05% Tween-20, 15 °C; KD from fitting the equilibrium curve, three independent measurements; details: both partners purified
T1 construct: Insulin-like growth factor 1 receptor, human, extracellular domain, residues 1-905; 31-935 of the precursor P08069; also called extracellular domain of IGFI-R; source: ExpiCHO, transiently transfected, purified from the supernatant (Ni-NTA, SEC)

[2] = target: B1; assay: as above; details: both partners purified

Row | Binder | Kd [1] [µM] | Kd [2] [µM]
1 | B1 | 6.8 | –
2 | B2 | – | 12.1
